B1: Eukaryotic peptide chain release factor GTP-binding subunit (Schizosaccharomyces pombe (strain ATCC 38366 / 972)), O74718 (parent)
chain: MASNQPNNGEQDEQLAKQTSKLSMSAKAPTFTPKAAPFIPSFQRPGFVPVNNIAGGYPYAQYTGQGQNSNSPHPTKSYQQYYQKPTGNTVDEDKSRVPDFSKKKSFVPPKPAIPKGKVLSLGGNTSAPKSTKPISISLGGTKAPTTTKPAAPAAQSKTETPAPKVTSESTKKETAAPPPQETPTKSADAELAKTPSAPAAALKKAAEAAEPATVTEDATDLQNEVDQELLKDMYGKEHVNIVFIGHVDAGKSTLGGNILFLTGMVDKRTMEKIEREAKEAGKESWYLSWALDSTSEEREKGKTVEVGRAYFETEHRRFSLLDAPGHKGYVTNMINGASQADIGVLVISARRGEFEAGFERGGQTREHAVLARTQGINHLVVVINKMDEPSVQWSEERYKECVDKLSMFLRRVAGYNSKTDVKYMPVSAYTGQNVKDRVDSSVCPWYQGPSLLEYLDSMTHLERKVNAPFIMPIASKYKDLGTILEGKIEAGSIKKNSNVLVMPINQTLEVTAIYDEADEEISSSICGDQVRLRVRGDDSDVQTGYVLTSTKNPVHATTRFIAQIAILELPSILTTGYSCVMHIHTAVEEVSFAKLLHKLDKTNRKSKKPPMFATKGMKIIAELETQTPVCMERFEDYQYMGRFTLRDQGTTVAVGKVVKILD
partner: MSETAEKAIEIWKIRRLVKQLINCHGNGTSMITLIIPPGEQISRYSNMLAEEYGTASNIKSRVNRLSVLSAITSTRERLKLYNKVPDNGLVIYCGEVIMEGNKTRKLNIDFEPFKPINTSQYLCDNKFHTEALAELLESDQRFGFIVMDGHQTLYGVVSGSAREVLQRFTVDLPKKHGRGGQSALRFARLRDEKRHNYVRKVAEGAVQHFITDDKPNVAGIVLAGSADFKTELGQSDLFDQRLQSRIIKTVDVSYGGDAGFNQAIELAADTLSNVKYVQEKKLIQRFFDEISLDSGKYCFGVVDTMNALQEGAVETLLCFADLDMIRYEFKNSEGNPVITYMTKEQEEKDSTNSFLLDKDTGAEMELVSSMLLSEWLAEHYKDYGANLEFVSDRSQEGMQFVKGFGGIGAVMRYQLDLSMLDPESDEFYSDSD
B2: Peptide chain release factor subunit 1 (Aeropyrum pernix (strain ATCC 700893 / DSM 11879 / JCM 9820 / NBRC 100138 / K1)), Q9YAF1 (parent)
chain: MSQGRLEERLTISKRELARLLKELKKWSAPATVLLSLYIPPGRPLSDVMTLLRQEYSITDNIKLKRTRQAVKRALSAAMDRLQMLTSTPPNGLVLFCGEDMSTGKFECFMFSPPEPIRVFYYRTDKRFITDFLEDMVEDNNAIGIIIVERDQATIGLLKGARLEVLKELEGFVPGKHKMGGQSQRRYERIIEQMVDEFFKKVGEEASNLLVPLAEKGVLKGVIVAGPGLAKQEFVEGNYLDYRLKKILAPELVDVAYQGLQGLKEAVMKAEKVVEAQMYRDAVNAMEEFKLHLAKGTGMIVYGEKDVEAALEMGAVKTLLIHESREDLEEWVEKAKSSGAQVIVVPESLAEAEWFLKTFGGLAGILRFRISTV
partner: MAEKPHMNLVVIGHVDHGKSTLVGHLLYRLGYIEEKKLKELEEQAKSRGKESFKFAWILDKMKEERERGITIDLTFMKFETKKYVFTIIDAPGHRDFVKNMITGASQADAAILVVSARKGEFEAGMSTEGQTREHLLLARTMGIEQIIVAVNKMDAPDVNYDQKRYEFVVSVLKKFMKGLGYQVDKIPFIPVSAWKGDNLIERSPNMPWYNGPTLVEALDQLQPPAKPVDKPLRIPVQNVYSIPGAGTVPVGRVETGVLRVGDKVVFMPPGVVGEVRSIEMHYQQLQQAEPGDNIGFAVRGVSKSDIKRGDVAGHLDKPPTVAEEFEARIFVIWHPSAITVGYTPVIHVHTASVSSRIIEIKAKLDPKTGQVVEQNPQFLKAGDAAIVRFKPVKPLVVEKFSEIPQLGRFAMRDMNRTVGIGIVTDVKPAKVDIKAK
B3: Eukaryotic peptide chain release factor subunit 1 (Schizosaccharomyces pombe (strain ATCC 38366 / 972)), P79063 (parent)
chain: B1 partner
partner: B1 chain
B4: Elongation factor 1-alpha (Aeropyrum pernix (strain ATCC 700893 / DSM 11879 / JCM 9820 / NBRC 100138 / K1)), Q9YAV0 (parent)
chain: B2 partner
partner: B2 chain

Variants of: B1
Details: with erf1_schpo sup45, P79063

effect of a mutation on the interaction	Variant
decreasing interaction	E297A
decreasing interaction	E305A
disrupting interaction	Y477A
decreasing interaction	T294A
disrupting interaction	Y329A

Variants of: B2
Details: with ef1a_aerpe tuf

effect of a mutation on the interaction	Variant
decreasing interaction	E168A
disrupting interaction	L293A
disrupting interaction	W354A
disrupting interaction	G228A
disrupting interaction	F359A
disrupting interaction	K290A

Variants of: B3
Details: with erf3_schpo sup35, O74718

effect of a mutation on the interaction	Variant
decreasing interaction	K176A
decreasing interaction	L173A

Variants of: B4
Details: with rf1_aerpe prf1, Q9YAF1

effect of a mutation on the interaction	Variant
decreasing interaction	D73A
disrupting interaction	E64A
decreasing interaction	E65A
disrupting interaction	F379A
disrupting interaction	S337A
disrupting interaction	A338S
